From patent US20210206832A1 (Regeneron, published 2021)

Tests used:
[1] = biological target: T1, recombinant VEGF MiniTrap (dimer) MT5 (human); assay: affinity chromatography on the mAb1 column, repeated run, 19.6 mg MT5 loaded
T1 construct: also called VEGF MiniTrap 5
T1 chain: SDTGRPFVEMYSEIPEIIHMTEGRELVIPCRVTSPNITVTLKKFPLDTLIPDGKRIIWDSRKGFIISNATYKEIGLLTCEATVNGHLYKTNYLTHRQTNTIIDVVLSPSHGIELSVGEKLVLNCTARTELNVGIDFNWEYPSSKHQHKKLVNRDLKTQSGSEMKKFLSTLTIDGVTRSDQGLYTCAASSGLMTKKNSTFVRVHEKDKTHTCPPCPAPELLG

[2] = biological target: T1, recombinant VEGF MiniTrap (dimer) MT5; assay: affinity chromatography on the mAb1 column, repeated run, 19.7 mg MT5 loaded

B1: mAb1 (a mouse anti-VEGFR1 mAb human IgG1) (antibody)
heavy: not shown
light: DIQMTQSPSSLSASLGGKVTITCTTSQDSNNYIAWYQHKPGKGPRLLIHYASTLQPGIPSRFSGSGSGRDYSFSISNLEPEDIATYFCLQYDYLWTFGGGTKLELKRTVAAPSVFIFPPSDEQLKSGTASVVCLLNNFYPREAKVQWKVDNALQSGNSQESVTEQDSKDSTYSLSSTLTLSKADYEKHKVYACEVTHQGLSSPVTKSFNRGEC
[1]
  Eluate: 2 mg
[2]
  Eluate: 1.8 mg
